Laboratory results as given in paper doi:10.64898/2025.12.08.692957.

Experiments:
[1] = molecular target: Hcp (purified) (Acinetobacter baylyi); test: flow-induced dispersion analysis
[2] = molecular target: TagF, DyLight 488 labelled (Acinetobacter baylyi); test: flow-induced dispersion analysis
[3] = molecular target: Hcp (purified) (Acinetobacter baylyi); test: mass photometry

Hcp (purified) (natural protein)
stoichiometry N [1]: 6
Kd [2]: 30.4 µM
percent of Hcp present as hexameric complex [3]: > 93%
stoichiometry N [3]: 6
